According to patent publication US11306331B2, “Processes for the production of hydroxycinnamic acids using polypeptides having tyrosine ammonia lyase activity” (CysBio ApS, priority 2014, dated 2022):

How the values were obtained:
[1] = substrate: N[C@@H](Cc1ccc(O)cc1)C(=O)O; assay: In vitro kinetics of purified His-tagged SeSam8 (tyrosine/phenylalanine ammonia lyase activity, absorbance at 315/295 nm); format: biochemical, Saccharothrix espanaensis; conditions: other: SeSam8, 30° C, 1.56 μM to 200 μM tyrosine or 193 μM to 25 mM phenylalanine, pH 7.5
Text: (§1) Four of the enzymes were further purified by His-tag purification as follows. A DNA linker (5′ phosphorylated oligonucleotides CBJP559 and CBJP560, Table 5) was inserted in place of the sequence between the NdeI and BgIII site in plasmid pCDFDuet-1. This would result in the addition of the amino acids MAHHHHHHENLYFQ (SEQ ID NO: 11) to the N-terminal end of the polypeptides. The resulting plasmid was amplified with primers CBJP575 and CBJP576 (table 5) and the genes were amplified and combined using the Gibson reaction (New England Biolabs). The PCR amplification used the same reverse primers as in example 1, but the forward primers matching the His-tag site of the linker (Table 5). Plasmids carrying the genes (e.g. FjXAL, FIG. 4) were transformed into electrocompetent E. coli BL21(DE3)pLysS cells (Life Technologies) and selected on LB plates containing 50 ug/mL streptomycin.
(§2) Strains expressing His-tagged versions of the enzymes were grown in LB media overnight at 37° C. and diluted into fresh LB media with 1 mM IPTG and growth was propagated overnight (approximately 18 h) at 30° C. Cells were harvested by centrifugation at 8000 rpm for 8 minutes, and disrupted by shearing into a buffer (50 mM Tris-HCl, 10 mM imidazole, 500 mM NaCl, 10% glycerol, pH 7.5). The homogenate was clarified by centrifugation at 10000 g for 10 min at 4° C., and the supernatant was loaded onto Ni2+-NTA resin column on an Äkta Pure system connected to a F9-C fraction collector (GE). Finally the fractions containing the purified polypeptide was dialyzed overnight against a buffer containing 50 mM Tris-HCl pH 7.5, 150 mM NaCl and 10% glycerol, flash-frozen in liquid nitrogen and stored at −80° C.
(§3) Enzymatic assays were performed in 200 μL volumes in wells in a UV transparent 96-well plate, by following the increase in absorbance at 315 nm (pHCA) or 295 nm (CA). […] The enzymatic activity was calculated as U/g, where U is defined as μmol substrate converted per minute.

[2] = substrate: N[C@@H](Cc1ccccc1)C(=O)O; assay: as above; format: biochemical, Saccharothrix espanaensis; conditions: other: SeSam8, 30° C, 1.56 μM to 200 μM tyrosine or 193 μM to 25 mM phenylalanine, pH 7.5
Text: as §1, §2, §3

B1: Saccharothrix espanaensis SeSam8 (Protein GI 433607630), His-tagged (N-terminal tag SEQ ID NO: 11) (Saccharothrix espanaensis) (protein)
chain: MTQVVERQADRLSSREYLARVVRSAGWDAGLTSCTDEEIVRMGASARTIEEYLKSDKPIYGLTQGFGPLVLFDADSELEQGGSLISHLGTGQGAPLAPEVSRLILWLRIQNMRKGYSAVSPVFWQKLADLWNKGFTPAIPRHGTVSASGDLQPLAHAALAFTGVGEAWTRDADGRWSTVPAVDALAALGAEPFDWPVREALAFVNGTGASLAVAVLNHRSALRLVRACAVLSARLATLLGANPEHYDVGHGVARGQVGQLTAAEWIRQGLPRGMVRDGSRPLQEPYSLRCAPQVLGAVLDQLDGAGDVLAREVDGCQDNPITYEGELLHGGNFHAMPVGFASDQIGLAMHMAAYLAERQLGLLVSPVTNGDLPPMLTPRAGRGAGLAGVQISATSFVSRIRQLVFPASLTTLPTNGWNQDHVPMALNGANSVFEALELGWLTVGSLAVGVAQLAAMTGHAAEGVWAELAGICPPLDADRPLGAEVRAARDLLSAHADQLLVDEADGKDFG
With B1 the Km [1] was 4.8 µM, the Km [2] was 2200 µM and the kcat [2] was 0.00883 s⁻¹. For the same protein, the kcat/Km [2] was 4.03 M⁻¹ s⁻¹.
